No end group written: not given here. Cy3 = Cy3 fluorescent dye label
Tests used:
[1] = biological target: T1, MyD88 TIR (Homo sapiens, UniProt Q99836); experiment: FLIM/FRET binding of Cy3-labeled peptides to Cer-fused TIR in HeLa cells
T1 construct: expressed in transfected cells; host or cells: HeLa
Experimental: (§1) Three million HeLa cells were transfected with 10 μg of MyD88-Cer, TIRAP-Cer, TRAM-Cer, TLR2-Cer, TLR4 TIR-Cer, or TLR9 TIR-Cer expression vectors using a Lipofectamine™ 3000 kit from Invitrogen™ per manufacturer recommendations. Twenty four hours later, the transfected cells were trypsinized and reseeded into a 50-well gasket (Grace Bio-Labs™) mounted on a microscope slide at the density 8000 cells/well. The next day, cells were treated with Cy3-9R34-ΔN or Cy3-9R11 for 1 hour and fixed on the slides with a 4% paraformaldehyde solution.
(§2) Fluorescence lifetime images were acquired using the Alba V FLIM™ system (ISS™ Inc.). The excitation was from the laser diode 443 nm coupled with scanning module (ISS™) through multiband dichroic filter 443/532/635 nm (Semrock™) to Olympus™ IX71S microscope with objective 20×0.45 NA (UPlan™ Olympus™). Emission was observed through bandpass filter […] (Chroma Technology™) and detected by a photomultiplier H7422-40 (Hamamatsu™). Measurements were performed using frequency domain (FD) and time domain (TD) modalities of the FLIM system. FD FLIM data were acquired using ISS™ A320 FastFLIM™ electronics with n harmonics of 20 MHz laser repetition frequency (n=1, 2, 3, 4, 5, 6). FastFLIM™ was calibrated using fluorescein in buffer pH 8.0 as a standard with a single lifetime of 4.0 ns. TD FLIM images were acquired using time-correlated single photon counting TCSPC™ Model SPC-830 (Becker & Hick™).
(§3) Images (256×256 pixels) were acquired with resolution varied in the range ˜0.4-0.7 μm/pixel, using scan speed 1 ms/pixel. To avoid pixel intensity saturation in bright cells and to improve the signal from dim cells, two to five overlapping scans were used for acquisition of FLIM images. Image sizes varied from 100×100 to 180×180 μm to accommodate multiple cells. FLIM data were analyzed with VistaVision™ Suite software (Vista™ v.212 from ISST). Fluorescence lifetime was determined using single- and bi-exponential intensity decay models. Average lifetime images were generated based on pixel-by-pixel analysis using the combined signal of two neighboring pixels in all directions (bin 2=25 pixels). The binning was used to improve the signal for analysis. The average lifetimes were calculated from fitted parameters, decay times τi and amplitudes αi, τa=Σαiτi. The bi-exponential fitting procedure was performed with one lifetime component fixed at 3.1 nsec, which was found common for most images. To calculate the effective FRET efficiency (E), average lifetimes of the donor only images (τD) and donor-acceptor images (τDA) were used, E=1−τDA/τD.
(§4) To identify potential binding partners of inhibitory peptides a FRET approach coupled with Fluorescence Lifetime Imaging Microscopy (FLIM) was used. HeLa cells were transiently transfected with an expression vector that encodes a TIR domain fused with Cerulean fluorescent protein (Cer). Cells were treated with various concentrations of a Cy3-labeled inhibitory peptide 48 hours after transfection. Cy3 is a suitable FRET acceptor for Cer fluorescence. A direct molecular interaction of a Cy3-labeled peptide with Cer-fused TIR domain should quench Cer fluorescence, leading to a decreased fluorescence lifetime.
(§5) TLR9, MyD88, and TIRAP were selected as potential primary binding partners for Cy3-9R34-ΔN and Cy3-9R11. Cer-fused TLR2 and TLR4 TIR domains, and Cer not fused to a TIR, were used as controls. […] Therefore, the TIRAP-Cer with Cy3-2R9 was used as a positive binding control. Binding of Cy3-labeled CPDPs to Cerulean- (Cer-) labeled TIR domains was tested as follows. Fluorescence Lifetime IMages (FLIM) were made of HeLa cells expressing Cer not fused with a TIR domain (upper row) or fused with TLR9 TIR or TIRAP TIR (middle and bottom rows) and treated with a Cy3-labeled decoy peptide for 1 hour.
(§6) A progressive shift of average fluorescence lifetime towards lower values observed with increasing peptide concentrations indicates the binding between donor and acceptor moieties. […]

[2] = biological target: T2, TIRAP TIR (Homo sapiens, UniProt P58753); experiment: as above
T2 construct: fused with TLR9 TIR or TIRAP TIR; expressed in transfected cells; host or cells: HeLa
T2 sequence (P58753 84-213 limits assumed): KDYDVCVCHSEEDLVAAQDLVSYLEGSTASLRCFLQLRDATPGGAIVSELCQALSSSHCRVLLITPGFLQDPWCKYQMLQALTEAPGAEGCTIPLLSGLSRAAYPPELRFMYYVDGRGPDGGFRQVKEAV
Experimental: as §1, §2, §3, §4, §5, §6

[3] = biological target: T3, TLR9 TIR (Homo sapiens, UniProt Q9NR96); experiment: as above
T3 construct: expressed in transfected cells; host or cells: HeLa
T3 sequence (Q9NR96 868-1013 limits assumed): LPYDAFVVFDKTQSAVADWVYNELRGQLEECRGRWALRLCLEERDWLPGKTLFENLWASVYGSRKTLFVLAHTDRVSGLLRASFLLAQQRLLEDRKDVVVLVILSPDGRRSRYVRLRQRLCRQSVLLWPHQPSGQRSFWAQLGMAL
Experimental: as §1, §2, §3, §4, §5, §6

[4] = test system: Cer not fused to a TIR domain; experiment: FLIM/FRET control construct in HeLa cells; assay type: binding; conditions: peptide 40 μM
Experimental: as §1, §2, §3, §5

[5] = biological target: T4, TLR2 TIR-Cer (Homo sapiens, UniProt O60603); experiment: FLIM/FRET control construct in HeLa cells; assay type: binding; conditions: peptide 40 μM
T4 construct: Cer-fused TLR2 and TLR4 TIR domains; expressed in transfected cells; host or cells: HeLa
T4 sequence (O60603 639-782 limits assumed): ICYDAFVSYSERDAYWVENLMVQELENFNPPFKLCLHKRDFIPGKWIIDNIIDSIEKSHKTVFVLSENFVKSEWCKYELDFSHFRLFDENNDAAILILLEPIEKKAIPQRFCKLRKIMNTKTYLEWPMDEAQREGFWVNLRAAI
Experimental: as §1, §2, §3, §5

[6] = test system: TLR4 TIR-Cer; experiment: FLIM/FRET control construct in HeLa cells; assay type: binding; conditions: peptide 40 μM
Experimental: as §1, §2, §3, §5

[7] = biological target: T5, TRAM-Cer (Homo sapiens, UniProt Q86XR7); experiment: FLIM/FRET control construct in HeLa cells; assay type: binding; conditions: peptide 40 μM
T5 construct: expressed in transfected cells; host or cells: HeLa
T5 sequence (Q86XR7 whole entry): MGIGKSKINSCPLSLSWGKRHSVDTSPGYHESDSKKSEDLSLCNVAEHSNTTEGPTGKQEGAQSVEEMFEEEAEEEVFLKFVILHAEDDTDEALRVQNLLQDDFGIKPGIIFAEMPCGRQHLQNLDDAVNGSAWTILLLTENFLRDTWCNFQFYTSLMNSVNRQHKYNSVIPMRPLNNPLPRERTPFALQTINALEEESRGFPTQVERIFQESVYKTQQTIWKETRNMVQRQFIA
Experimental: as §1, §2, §3, §5

T1 sequence (Q99836 159-293 limits assumed): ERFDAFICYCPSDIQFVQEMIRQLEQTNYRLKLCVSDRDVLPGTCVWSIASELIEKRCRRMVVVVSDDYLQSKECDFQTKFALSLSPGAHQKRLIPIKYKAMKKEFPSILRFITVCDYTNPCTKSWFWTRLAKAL

quenching of MyD88 TIR-Cer ([1]; peptide 40 μM, considerably less than on TLR9 and TIRAP TIR-Cer): notable
average fluorescence lifetime of Cer-labeled MyD88 TIR ([1]; peptide 2.5 and 10 μM): not affected
effect on TIRAP-Cer fluorescence at the lowest peptide concentration ([2]; 2.5 μM): absence of the effect
quenching of TIRAP-Cer fluorescence ([2]; HeLa cells, Cy3-peptide 2.5-40 μM, 1 hour): notably quenched
FRET efficiency, TLR9 TIR-Cer ([3]; HeLa cells, Cy3-peptide 2.5-40 μM, 1 hour, dose-dependent): 9-23%
fluorescence lifetime of TLR9 TIR-Cer construct ([3]; minimal peptide concentration 2.5 μM): decreased
fluorescence lifetime of control TLR2 TIR-Cer [5]: slightly affected
fluorescence lifetime of control TRAM-Cer [7]: slightly affected
Substance: Cy3-9R34-ΔN: Cy3-labeled 9R34-ΔN peptide, Cy3 label placed at the peptide N-terminus (Cy3-RQIKIWFQNRRMKWKKALRLCLEERD)
fluorescence lifetime of Cer not fused to a TIR domain (unspecific quenching) [4]: slightly affected
fluorescence lifetime of control TLR4 TIR-Cer [6]: slightly affected

— patent US12084521B2, “TLR9 inhibitors to suppress inflammatory response to pathogens” (University Of Maryland, Baltimore, priority 2018, dated 2024)
